In publication PMC4706430:

Molecular target: Elastase (human neutrophil elastase) (human) (UniProt P08246)
Sequence (P08246 30-267): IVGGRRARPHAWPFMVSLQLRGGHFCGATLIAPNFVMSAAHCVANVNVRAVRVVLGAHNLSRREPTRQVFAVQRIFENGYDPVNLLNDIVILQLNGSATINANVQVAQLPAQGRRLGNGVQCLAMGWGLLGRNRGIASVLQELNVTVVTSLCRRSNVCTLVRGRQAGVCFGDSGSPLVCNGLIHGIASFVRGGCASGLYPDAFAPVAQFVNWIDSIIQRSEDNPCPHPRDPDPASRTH

cleavage of TFPI (1 μg) by elastase (0.8 μg/mL) with Boophilin 0-3 μM, SDS-PAGE (Fig 4D): 20%
Substance: Boophilin (natural protein)
